B1: RAD51 (parent)
chain: RFLRMLLRLADEFGVAVVITNQVV

Variants of: B1
Test: protein stability index of a GFP-peptide fusion (GPS, HEK-293T) (PSI 1-6); higher = more stable
Details: c terminus: a fixed tail appended
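Further: lentivirally expressed fusions sorted by FACS into six bins by GFP to DsRed ratio, PSI derived from sequencing read proportions per bin multiplied by bin number.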

Protein stability index of substitutions, site by site:
V15: C 3.16, L 2.06, M 1.56, R 2.32, D 1.77, P 3.13, S 3.16, Y 1.8, Q 3.05, F 2.82, K 2.75, I 2.51, W 2.43, A 1.79, N 2.31, G 1.98, H 2.6, E 2.08
G14: S 1.53, Q 1.69, E 1.92, D 2.97, H 1.82, Y 3.29, A 2.83, V 2.18, F 4.07, N 2.03, K 1.96, L 3.4, T 1.94, P 1.33, R 2.06, M 1.74, C 2.4
T20: N 1.21, P 2.72, R 2.34, W 3.05, G 1.98, A 2.68, S 3.06, V 2.82, L 2.3, F 1.3, E 1.53, D 2.52, I 2.75, K 3.31, Q 2.26, C 1.8, M 1.44, Y 1.97
V17: N 2.35, F 2.19, S 1.36, T 2.11, E 2.58, G 3.41, A 1.67, M 2.49, P 1.86, R 1.52, C 1.06, I 3.4, D 2.06, L 2.96, Y 2.83, Q 1.25, H 2.9, W 2.41, K 2.65
D11: Y 3.81, V 2.46, T 2.51
V18: D 2.79, F 1.24, G 2.45, P 2.32, M 3.82, C 2.1, L 2.62, T 3.38, S 3.17, Q 2.87, I 1.87, N 3.8, K 3.09, W 2.75, H 3.04, A 3.03, R 2.94, E 2.44
E12: P 2.01, R 3.5, I 3.64, K 2.42, D 2.48, G 1.3, M 2.33, L 2.75, S 2.08, V 1.94, N 1.68, C 3.13, Q 3.13, H 3.24, A 2.02, T 1.46, F 3.25
I19: Q 1.37, N 2.67, T 2.84, F 2.18, C 2, G 1.58, K 2.52, L 1.45, H 1.25, V 1.63, S 1.95, R 3, D 2.76, Y 2.79, A 3.02, P 1.47, W 1.96
N21: F 2.06, C 1.32, D 4.17, G 3.1, A 2.52, E 1.08, H 1.43
A16: I 2.24, K 2.4, R 2.25, T 1.79, M 3.12, L 2.2, P 1.08, W 2.44, N 3.11, H 3.12, V 1.34, S 2.34, C 1.43, D 3.29, F 1.55, Y 1.93, Q 1.87
F13: D 3.29, A 1.3, M 2.21, P 1.25, E 2.74, H 1.86, Q 1.61, G 2.04, Y 1.72, N 1.26, L 2.56, R 2.34, T 1.97, S 1.59, K 2.2, W 3.5

Source: the supplement of paper PMC10567573
